# According to paper PMC12209172, “Poly(ADP-ribose)polymerase 2 is zinc-dependent enzyme and nucleosome reorganizer” (Cellular and Molecular Life Sciences: CMLS, 2025):
# B1: WGR domain: recombinant WGR domain of PARP2 (residues 77–220) expressed in Escherichia coli (protein, UniProt O88554 77-220, looked up, fragment)
# chain: ECAAKLGKAHVYCEGDDVYDVMLNQTNLQFNNNKYYLIQLLEDDAQRNFSVWMRWGRVGKTGQHSLVTCSGDLNKAKEIFQKKFLDKTKNNWEDRENFEKVPGKYDMLQMDYAASTQDESKTKEEETLKPESQLDLRVQELLKL
# modifications: WGR domain
# notes: recombinant WGR domain of PARP2 (residues 77–220) expressed in Escherichia coli
# Legend:
# [1] = target: T1, NP nucleosomes (Homo sapiens, UniProt Q9UGN5); test: EMSA of WGR domain-nucleosome complexes (0.7% agarose gel); type: binding, chicken; settings: no divalent cations or 2 mM Zn2+
# T1 construct: WGR domain of PARP2 (residues 77–220) into pET-15b-TEV expression vector; 6xHis (pET-15b-TEV) (N, cleaved yes); made in house; host or cells: Escherichia coli Rosetta2 (DE3) pLysS (WGR)
# Procedure: Sample preparation for EMSA was the same as for spFRET microscopy, although a slightly higher concentration of nucleosomes (2–3 nM) was used. […] Electrophoresis was performed under native conditions at 140 V, + 4 °C for ∼1.5 h. The gels were scanned using Amersham Typhoon RGB imager (Cytiva, Sweden). Fluorescence was excited in the gel at the 532 nm wavelength and recorded in the 570–610 nm (Cy3 signal) and 650–700 nm (FRET signal of Cy5) spectral regions. The resulting images were obtained in green (Cy3 signal) and red (FRET signal of Cy5) colors and merged.
# Fig. 3 WGR domain of PARP2 binds zinc ions and reorganizes nucleosome structure. (a) A model of Zn^2+ binding to the WGR domain created on the basis of the PDB structure 6F5B. Two putative binding sites are shown. N- and C-terminal ends of the WGR domain are indicated. The numbering of the residues corresponds to the numbering of the complete PARP2 sequence. (b) CD spectra of the WGR domain (60 µM) in a buffer containing no divalent cations (Me^2+) or 0.5 mM Zn^2+ ions. (c) Content of canonical types of secondary structures in the WGR domain of PARP2 according to the analysis of CD spectra of the WGR domain measured in the absence or presence of 0.5 mM Zn^2+ ions. (d) Changes in the fluorescence spectra of tryptophan residues 148, 151 and 188 of the WGR domain (5 µM) at different concentrations of Zn^2+ ions. […]
# [2] = target: T2, Nd nucleosomes (Homo sapiens, UniProt Q9UGN5); test: Fluorescence microscopy of Nd nucleosomes binding to His-tagged WGR immobilized on Ni-NTA beads; set-up: species or system chicken; settings: beads with immobilized His-tagged WGR vs without
# T2 construct: WGR domain of PARP2 (residues 77–220) into pET-15b-TEV expression vector; made in house; host or cells: Escherichia coli Rosetta2 (DE3) pLysS
# Procedure: The binding of nucleosomes to the WGR domain was confirmed after immobilization of the protein containing His-tag on the surface of Ni-NTA beads using fluorescence microscopy (Figure S6).
# Figure S6. Confocal fluorescence (a, c, e) and transmitted-light (b, d, f) imaging of Ni-NTA beads with (a, b, e, f) or without
# (c, d) immobilized 6 ×His-WGR. The beads were additionally incubated with Nd nucleosomes (a, b, c, d). The parameters of
# measurements and intensity scales in fluorescent images(a, c, e)are the same. […]
molecule,measurement,setting,value
B1,binding of the WGR domain to nucleosomes,[1],binds to nucleosomes in the presence and absence of Zn^2+ ions
same,binding of Nd nucleosomes to Ni-NTA beads,[2],strongly increased
